Assay results from patent publication US20170320960A1 (AbbVie / Abbott, published 2017).
Like-named read-outs stand apart in the source and are kept apart here.

T1: hMFI2 Tf-like Domain 2 (TLD2), amino acids 366-709, displayed on yeast (human, UniProt P08582 366-709)
T1 construct: also called TFLD2; transferrin-like domain 2
T1 sequence: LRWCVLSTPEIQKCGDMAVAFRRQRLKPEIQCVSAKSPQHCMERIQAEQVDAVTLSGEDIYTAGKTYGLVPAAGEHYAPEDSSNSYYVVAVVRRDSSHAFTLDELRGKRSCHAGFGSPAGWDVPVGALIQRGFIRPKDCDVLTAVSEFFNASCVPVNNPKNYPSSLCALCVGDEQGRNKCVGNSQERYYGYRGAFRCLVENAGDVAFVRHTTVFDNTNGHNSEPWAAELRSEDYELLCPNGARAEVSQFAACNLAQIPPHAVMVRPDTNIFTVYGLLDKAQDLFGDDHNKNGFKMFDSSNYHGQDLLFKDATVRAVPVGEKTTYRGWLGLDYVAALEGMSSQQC

T2: hMFI2 Tf-like Domain 1 (TLD1), amino acids 20-357, displayed on yeast (human, UniProt P08582 20-357)
T2 construct: also called TFLD1
T2 sequence: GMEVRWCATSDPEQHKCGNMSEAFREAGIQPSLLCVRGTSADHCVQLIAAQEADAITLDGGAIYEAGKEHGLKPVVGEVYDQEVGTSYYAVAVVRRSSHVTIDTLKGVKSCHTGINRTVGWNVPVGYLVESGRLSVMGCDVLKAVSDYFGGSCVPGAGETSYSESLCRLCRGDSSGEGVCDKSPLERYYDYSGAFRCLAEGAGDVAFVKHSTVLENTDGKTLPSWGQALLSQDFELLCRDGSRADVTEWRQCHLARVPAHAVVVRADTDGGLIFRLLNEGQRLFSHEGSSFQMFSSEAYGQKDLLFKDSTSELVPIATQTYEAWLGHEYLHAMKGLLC


Columns and labels:
Experiment in all cases: flow cytometry on yeast displaying hMFI2 domains
[1] = molecular target: T1, hMFI2 Tf-like Domain 2 (TLD2), amino …
[2] = molecular target: T1, hMFI2 Tf-like Domain 2 (TLD2), amino …; remark: listed apart in the source
[3] = molecular target: T2, hMFI2 Tf-like Domain 1 (TLD1), amino …

Binder | binding result [1] | binding result [2] | other results
hSC57.43 (antibody, human IgG1, kappa, V domains shown) VH: QVQLVESGGGVVQPGRSLRLSCAASGFTFGSYTMSWVRQAPGKGLEWVAYISNGGYVTYYPDTVKGRFTISRDNSKNTLYLQMNSLRAEDTAVYYCARGYDWYFDVWGQGTTVTVSS VL: DIVMTQSPDSLAVSLGERATINCRSSQSLVHSNGNTYLHWYQQKPGQPPKLLIYKVSNRFSGVPDRFSGSGSGTDFTLTISSLQAEDVAVYYCSQSTHVPLYTFGGGTKVEIKR | binds | – | –
SC57.5 (antibody, V domains shown) VH: EVQLQQSGPELVKPGASVKISCKASGYSFTDYYLHWVKQSHVKSLEWIGRINPYNGATSYNQIFKDKASLTVDKSSSTAYMDLHSLTSEDSAVYYCARGGDYDFPWYWGQGTTLTVSP VL: DIVMTQSHKFMSTSVGDRVSITCKASQDVYAAVAWYHQKPGQSPKLLIYWASTRHAGVPDRFTGSGSGTDYTLTISSVQAEDLALYYCQQHYRTPWTFGGGTKLEIK | – | binds | –
SC57.9 (antibody, V domains shown) VH: QVQLQQSGPELMKPGASVKISCKATGYTFSSYWIEWVKQRPGHGLEWIGEILPGSGSTEYNEKFKGKATFTADTSSNTAYMQLSSLTSEDSDVYYCARKRYGTMDYWGQGTSVTVSS VL: QIVLTQSPAIMSASPGEKVTITCSASSSVSYMHWFQQKPGTSPKLWIYTTSNLASGVPARFSGSGSGTSYSLTISRMEAEDAATYYCQQRSSFPPTFGSGTKLEIK | – | binds | –
hSC57.5 (antibody, human IgG1, kappa, V domains shown, also called humanized SC57.5) VH: EVQLVQSGAEVKKPGESLKISCKGSGYSFTDYYLHWVRQMPGKGLEWMGRINPYNGATSYNQIFKDQVTISADKSISTAYLQWSSLKASDTAMYYCARGGDYDFPWYWGQGTTVTVSS VL: DIQMTQSPSSLSASVGDRVTITCKASQDVYAAVAWYQQKPGKAPKLLIYWASTRHAGVPSRFSGSGSGTDFTLTISSLQPEDFATYYCQQHYRTPWTFGQGTKVEIKR | binds | – | –
hSC57.32 (antibody, human IgG1, kappa, V domains shown) VH: QVQLVQSGAEVKKPGASVKVSCKASGYTFTNYRIEWVRQAPGQGLEWMGEILPRGGNTNYNEKFKGRVTFTADTSTSTAYMELRSLRSDDTAVYYCARDDGYYGRFAYWGQGTLVTVSS VL: DIQMTQSPSSLSASVGDRVTITCRASQDISNYLNWYQQKPGKAPKLLIYYTSRLHSGVPSRFSGSGSGTDYTLTISSLQPEDFATYYCQQGNTLPPTFGGGTKVEIKR | binds | – | –
SC57.1 (antibody, V domains shown) VH: QVQLKQSGPGLVQPSQSLSITCTVSGFSLTDYGVHWVRQSPGKGLDWLGVIWSGGNTDYNAAFISRLSISKDNSKSQIFFEMNSLQDTDTAIYYCARQLHYYGPFAYWGQGTLVTVSA VL: QIVLTQSPAIMSASPGEKVTMTCSASSSVSYMHWYQQKSGTSPKRWIYDTSKLASGVPVRFSGSGSGTSYSLTISSIEADDAATYYCQQWSRTPPTFGGGTKLEIK | – | – | binding result [3]: binds
SC57.17 (antibody, V domains shown) VH: EVQLQQSGAELVKPGASVKLSCTASGFNIKDTYMHWVKQRPEQGLEWIGRIDPANVNTSDDPKFQGKATIAADTSSNTVYLQLSSLTSEDTAVYYCARDYRYDGYYYAMDYWGQGTSVTVSS VL: DIQMTQTTSSLSASLGDRVTISCSASQDINNYLNWYQQKPDGTVKLLIHYTSSLHSGVPSRFSGSGSGTDYSLTISNLEPEDIATYYCQQYSKVPWTFGGGTKLEIK | – | binds | –
SC57.4 (antibody, V domains shown) VH: EIQLQQSGPEMVKPGASVKVTCKASGYSFTDFNMHWMKQSHGKSLEWIGYIDPYKGGISYNQKFKGRATLTVDKSSSTAFMHLNSLTSDDSAVYYCARDYYGSRFPYYFDYWGQGTTLTVSS VL: DVVMTQTPLSLPVSLGDQASISCRSSQSLVHSNGNTYLHWYLQKPGQSPKLLIYRVSNRFSGVPDRFSGSGSGTDFTLKISRVEAEDLGVYLCSQSTHVPLTFGAGTKLELK | – | binds | –

Further lines, with some results ahead:

binding result [1] | binding result [2] | Binder | other results
– | binds | SC57.18 (antibody, V domains shown) VH: EIQLQQSGPEMVKPGASVKVTCKASGYSFTDFNMHWMKQSHGKSLEWIGYIDPYKGGISYNQKFKGRATLTVDKSSSTAFMHLNSLTSDDSAVYYCARDYYGSRFPYYFDYWGQGTTLTVSS VL: DVVMTQTPLSLPVSLGDQASISCRSSQSLVHSNGNTYLHWYLQKPGQSPKLLIYRVSNRFSGVPDRFSGSGSGTDFTLKISRVEAEDLGVYLCSQSTHVPLTFGAGTKLELK | –
– | binds | SC57.28 (antibody, V domains shown) VH: EIQLQQSGPEMVKPGASVKVTCKASGYSFTDFNMHWMKQSHGKSLEWIGYIDPYKGGISYNQKFKGRATLTVDKSSSTAFMHLNSLTSDDSAVYYCARDYYGSRFPYYFDYWGQGTTLTVSS VL: DVVMTQTPLSLPVSLGDQASISCRSSQSLVHSNGNTYLHWYLQKPGQSPKLLIYRVSNRFSGVPDRFSGSGSGTDFTLKISRVEAEDLGVYLCSQSTHVPLTFGAGTKLELK | –
– | binds | SC57.25 (antibody, V domains shown) VH: EIQLQQSGPEMVKPGASVKVTCKASGYSFTDFNMHWMKQSHGKSLEWIGYIDPYKGGISYNQKFKGRATLTVDKSSSTAFMHLNSLTSDDSAVYYCARDYYGSRFPYYFDYWGQGTTLTVSS VL: DVVMTQTPLSLPVSLGDQASISCRSSQSLVHSNGNTYLHWYLQKPGQSPKLLIYRVSNRFSGVPDRFSGSGSGTDFTLKISRVEAEDLGVYLCSQSTHVPLTFGAGTKLELK | –
binds | – | SC57.37 (antibody, V domains shown) VH: EIQLQQSGPEMVKPGASVKVTCKASGYSFTDFNMHWMKQSHGKSLEWIGYIDPYKGGISYNQKFKGRATLTVDKSSSTAFMHLNSLTSDDSAVYYCARDYYGSRFPYYFDYWGQGTTLTVSS VL: DVVMTQTPLSLPVSLGDQASISCRSSQSLVHSNGNTYLHWYLQKPGQSPKLLIYRVSNRFSGVPDRFSGSGSGTDFTLKISRVEAEDLGVYLCSQSTHVPLTFGAGTKLELK | –
– | binds | SC57.10 (antibody, V domains shown) VH: QVQLQQSGAELMKPGASVKISCKATGYTFSNYRIEWIKQRPGHGLEWIGEILPRGGNTNYNEKFKGKATFTADTSSNTAYMQLTSLTSEDSAVYYCARDDGYYGRFAYWGQGTLVTVSA VL: DIQMTQTTSSLSASLGDRVTISCRASQDISNYLNWYQQKPDGTVKLLIFYTSRLHSGVPSRFSGSGSGTDYSLTISNLEQEDFATYFCQQGNTLPPTFGGGTKLEIK | –
binds | – | SC57.32 (antibody, V domains shown) VH: QVQLQQSGAELMKPGASVKISCKATGYTFSNYRIEWIKQRPGHGLEWIGEILPRGGNTNYNEKFKGKATFTADTSSNTAYMQLTSLTSEDSAVYYCARDDGYYGRFAYWGQGTLVTVSA VL: DIQMTQTTSSLSASLGDRVTISCRASQDISNYLNWYQQKPDGTVKLLIFYTSRLHSGVPSRFSGSGSGTDYSLTISNLEQEDFATYFCQQGNTLPPTFGGGTKLEIK | –
– | binds | SC57.11 (antibody, V domains shown) VH: QVQLQQSGAELMKPGASVKISCKATGYTFSNYRIEWMKQRPGHGLEWIGEILPRTGNTNYNENFKGKATFTADTSSNTAYIQLSSLTSEDSAVYYCARDDGYYGRFAYWGQGTLVTVSA VL: DIQMTQTTSSLSASLGDRVTISCRASQDISSYLNWYQQKPDGTVKLLIYYTSRLHSGVPSRFSGSGSGTDYSLTINNLEQEDIATYFCQQGNTLPPTFGGGTKLEIK | –
binds | – | SC57.31 (antibody, V domains shown) VH: QVHLKESGPGLVAPSQSLSITCTVSGFSLTTYGVHWVRQPPGKGLEWLGVIWAGGSTKYNSAFMSRLSISKDNSKTQVLLKMNSLQTDDTAMYYCARVASHGSSSWFAYWGQGTLVTVSA VL: DIVLTQSPATLSVTPGDSVSLSCRASQSVGNSLHWYQQKSHESPRLLIKYASQSISGIPSRFSGSGSGTDFTLSINSVETEDFGMYFCQQSDSWPLTFGTGTKLELK | –
binds | – | SC57.55 (antibody, V domains shown) VH: QVQLKQSGPGLVQPSQSLSITCTVSGFSLSSYGVHWVRQSPGKGLEWLGVIWSGGNTDYNAAFISRLSISKDNSKSQVFFKMNSLQADDTAIYYCARRNNSAWFAYWGQGTLVTVSA VL: DIVLTQSPATLSVTPGDSVSLSCRASQGISNNLHWYQQKSHESPRLLIKYASQSISGIPSRFSGSGSGTDFALSINSVETEDFGMFFCQQSNSWPLTFGAGTKLELK | –
binds | – | SC57.52 (antibody, V domains shown) VH: QVQLKQSGPGLVQPSQSLSITCTVSGFSLSSYGVHWVRQSPGKGLEWLGVIWSGGNTDYNAAFISRLSISKDNSKSQVFFKMNSLQADDTAIYYCARRNNSAWFAYWGQGTLVTVSA VL: DIVLTQSPATLSVTPGDSVSLSCRASQGISNNLHWYQQKSHESPRLLIKYASQSISGIPSRFSGSGSGTDFALSINSVETEDFGMFFCQQSNSWPLTFGAGTKLELK | –
